Target: the molecule itself

B1: wild-type α-hemolysin (WT-HL) (natural protein)
chain: ADSDINIKTGTTDIGSNTTVKTGDLVTYDKENGMHKKVFYSFIDDKNHNKKLLVIRTKGTIAGQYRVYSEEGANKSGLAWPSAFKVQLQLPDNEVAQISDYYPRNSIDTKEYMSTLTYGFNGNVTGDDTGKIGGLIGANVSIGHTLKYVQPDFKTILESPTDKKVGWKVIFNNMVNQNWGPYDRDSWNPVYGNQLFMKTRNGSMKAADNFLDPNKASSLLSSGFSPDFATVITMDRKASKQQTNIDVIYERVRDDYQLHWTSTNWKGTNTKDKWIDRSSERYKIDWEKEEMTN
stoichiometry N: 7

Reference: paper PMC3547825 (PLoS Computational Biology, 2013)
